Tests used:
recombinant soluble CD4 = recombinant soluble CD4 (UniProt P01730); assay: SPR
human mAb 4E10 (human) = assay: SPR
Sequence of human mAb 4E10 (human) (light, as listed by the source, chain 2 of 2, other chains not shown): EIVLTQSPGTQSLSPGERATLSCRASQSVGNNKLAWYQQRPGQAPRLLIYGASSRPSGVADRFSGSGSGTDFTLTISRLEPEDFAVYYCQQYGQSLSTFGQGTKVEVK

Substance | Kd (recombinant soluble CD4) [nM] | fold enhancement of Kd against WT glycosylated CON-S gp140 (human mAb 4E10 (human)) [fold]
group M consensus gp140 Env, CON-S gp140CFI, WT glycosylated | 7.4 | –
CON-S gp140CFI Env, natively deglycosylated with PNGase F 500 U per µg | 9.4 | 7
HIV-1 JRFL gp140CF Env, WT glycosylated (domain or fragment) | 5.7 | –
HIV-1 JRFL gp140CF Env, natively deglycosylated with PNGase F 500 U per µg (domain or fragment) | 35.3 | –
